# From the supplement of paper PMC7125110
# ± gives the standard error. This sample holds only a part of the variants without activity.
# B1: glmS ribozyme (parent)
# chain: AUAAAAGCGCCAGAACUACAGAAAUGUAGUUGACGAGGAGGAGGUUUAUCGAAUUUUCGGCGGAUGCCUCCAAA
# Variants of: B1
# Assay: self-cleavage kobs at 2500 uM GlcN6P; higher = faster cleavage; RNA array
# Conditions: with glucosamine-6-phosphate
# Procedure, shortened: (§1)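 On sequenced MiSeq chips, barcoded ribozyme variants were made in situ by E. coli RNA polymerase and followed at 37 °C through a hybridised Cy3 probe. Glucosamine-6-phosphate was flowed in at 40 μM to 10 mM in HEPES/KCl/Mg(OAc)2 buffer. Exponential fits to normalised per-tile medians gave kobs, and weighted Michaelis–Menten fits gave kcat and KM.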
row,Variant,self-cleavage kobs at 2500 uM GlcN6P
1,U46C G60U G62U G63C,< 1e-05 s⁻¹
2,G43U C68A C70U C71A,9.92e-05 ± 2.8e-05 s⁻¹
3,A52G U57A C58G C71U,7.76e-05 ± 2.9e-05 s⁻¹
4,A48C U49C G59C,< 1e-05 s⁻¹
5,U54A C61A A64U C68U,8.54e-05 ± 3.8e-05 s⁻¹
6,C50A U56G C70A,8.66e-05 ± 2.8e-05 s⁻¹
7,G43C G66U C67A,0.000168 ± 5.2e-05 s⁻¹
8,G41U U47G U49A G66C C71U,< 1e-05 s⁻¹
9,A53C C61A G62U,< 1e-05 s⁻¹
10,G51C G66A,< 1e-05 s⁻¹
11,G41A U55A U57C A64U,< 1e-05 s⁻¹
12,A52U A53U G62A U65G C71G,< 1e-05 s⁻¹
13,G44C U49A G60A G66U,< 1e-05 s⁻¹
14,C50U G60A G63A,< 1e-05 s⁻¹
15,A42G G43U G60U C61A,< 1e-05 s⁻¹
16,C61G C68G,0.000131 ± 5.8e-05 s⁻¹
17,G60U C67A U69A,< 1e-05 s⁻¹
18,G40U A42G C70U,0.00344 ± 0.00066 s⁻¹
19,U45A U46A A52U,8.04e-05 ± 3.5e-05 s⁻¹
20,U46A A52G G63U C67G,< 1e-05 s⁻¹
21,U45C U46A,4.42e-05 ± 1.9e-05 s⁻¹
22,G44U C50G U56G,< 1e-05 s⁻¹
23,C50U A52C C58U,< 1e-05 s⁻¹
24,U57G C58A C70U C71G,9.31e-05 ± 2.5e-05 s⁻¹
25,U46G C61A,< 1e-05 s⁻¹
26,A42C G51A A64U C68G,< 1e-05 s⁻¹

row,Variant,self-cleavage kobs at 2500 uM GlcN6P
1,A42G U45C C70U,0.00265 ± 0.00085 s⁻¹
2,G41U U54G U56G G60A C70A,7.76e-05 ± 2.1e-05 s⁻¹
3,G44U A52G C67U U69G,< 1e-05 s⁻¹
4,A52U U55C A64G,4.16e-05 ± 1.5e-05 s⁻¹
5,U47A A64U C67G,< 1e-05 s⁻¹
6,A53G C61G G62A,< 1e-05 s⁻¹
7,U46G G66A C70A,0.00045 ± 0.00016 s⁻¹
8,C50A U55A C70U,5.24e-05 ± 2.1e-05 s⁻¹
9,G44C U55C C70G,< 1e-05 s⁻¹
10,A52G A53U G66C C67G,< 1e-05 s⁻¹
11,U45C U55A U65C,4.27e-05 ± 1.2e-05 s⁻¹
12,G41U A52U U55A C70U,6.63e-05 ± 1.6e-05 s⁻¹
13,G43A G44C U54G,< 1e-05 s⁻¹
14,G40A U46G U47G,0.000358 ± 0.00012 s⁻¹
15,G43A A53U U56G G62U,< 1e-05 s⁻¹
16,G41A U45A C71U,9.76e-05 ± 2.1e-05 s⁻¹
17,G51U A53G U69G,4.29e-05 ± 2e-05 s⁻¹
18,G44U U57A C71A,< 1e-05 s⁻¹
19,G41U A42U A52G U56A,3.73e-05 ± 1.2e-05 s⁻¹
20,G41U U55C C61G,< 1e-05 s⁻¹
21,U47G U56C C71A,5.07e-05 ± 2.5e-05 s⁻¹
22,A42U A52U U55C C70G,< 1e-05 s⁻¹
23,C50G U55C,3.57e-05 ± 1.6e-05 s⁻¹
24,U46G A48G U49G G59A,< 1e-05 s⁻¹
25,U57A A64U C67U U69G,8.87e-05 ± 2.4e-05 s⁻¹

# Variants of: B1
# Assay: self-cleavage kobs at 10000 uM GlcN6P; higher = faster cleavage; RNA array
# Conditions: with glucosamine-6-phosphate
# Procedure, shortened: as §1
row,Variant,self-cleavage kobs at 10000 uM GlcN6P
1,G7A G35C G41U,< 1e-05 s⁻¹
2,G7A A64G,4.09e-05 ± 9.6e-06 s⁻¹
3,C8G G51U U69G,0.00122 ± 0.00049 s⁻¹
4,C10U A15U U45A,< 1e-05 s⁻¹
5,A6U A12U A53G C67G,8.82e-05 ± 1.8e-05 s⁻¹
6,A6G G59C G62A,< 1e-05 s⁻¹
7,G9A A39C G41A A48C U49A,< 1e-05 s⁻¹
8,G51C G66A,< 1e-05 s⁻¹
9,G9A A12U C70G,< 1e-05 s⁻¹
10,G9A A36U U45A A64C,< 1e-05 s⁻¹
11,U45C U46A,5.25e-05 ± 1.3e-05 s⁻¹
12,C8G C10U U54G,< 1e-05 s⁻¹
13,A5U A39C U65G C68U,4.87e-05 ± 1.6e-05 s⁻¹
14,C11A A48G C50A C70A,5.38e-05 ± 1.9e-05 s⁻¹
15,U46G C61A,< 1e-05 s⁻¹
16,G7A G35U U57A,< 1e-05 s⁻¹
17,A6U G9A G29C C50U U69G,9.44e-05 ± 3.8e-05 s⁻¹
18,C8G C16U C68A,< 1e-05 s⁻¹

row,Variant,self-cleavage kobs at 10000 uM GlcN6P
1,A42G U45C C70U,0.00197 ± 0.00052 s⁻¹
2,A6C G9A C34A G40C G43A C50U U54A C58G C68U,< 1e-05 s⁻¹
3,G9C U46A C58U,< 1e-05 s⁻¹
4,G7U A42U C67G,< 1e-05 s⁻¹
5,A6U U47G C50A,< 1e-05 s⁻¹
6,G7A U55G C67U C70G,4.07e-05 ± 1.8e-05 s⁻¹
7,C8G G9A G35A A36U,< 1e-05 s⁻¹
8,A6U U45G G66A,0.000175 ± 4.1e-05 s⁻¹
9,G41U A52U U55A C70U,9.97e-05 ± 2.6e-05 s⁻¹
10,C8A C34U A64U C68U,< 1e-05 s⁻¹
11,G7U A12C U45C,< 1e-05 s⁻¹
12,A6U U45G U46C,4.58e-05 ± 1.7e-05 s⁻¹
13,A6G G35C U46C,< 1e-05 s⁻¹
14,G9U G41A C50U G60C,< 1e-05 s⁻¹
15,C11A A53C,2.2e-05 ± 1.1e-05 s⁻¹
16,A6U A39U U54A G60U,< 1e-05 s⁻¹
17,C8U G32C A36C G38C,< 1e-05 s⁻¹
